Laboratory results published in doi:10.1101/2020.04.03.024018.
Like-named read-outs stand apart in the source and are kept apart here.

Tests used:
Experiment in all cases: single-molecule force spectroscopy
[1] = biological target: C5aR complexed with the PMX53 antagonist (free PMX53 injected) (human) (UniProt P21730)
[2] = biological target: C5aR R175V/Y258V double mutant (human) (UniProt P21730)
[3] = biological target: C5a anaphylatoxin chemotactic receptor 1 (C5aR), wild type (human) (UniProt P21730)
Sequence of C5a anaphylatoxin chemotactic receptor 1 (C5aR), wild type (human) (P21730 whole entry): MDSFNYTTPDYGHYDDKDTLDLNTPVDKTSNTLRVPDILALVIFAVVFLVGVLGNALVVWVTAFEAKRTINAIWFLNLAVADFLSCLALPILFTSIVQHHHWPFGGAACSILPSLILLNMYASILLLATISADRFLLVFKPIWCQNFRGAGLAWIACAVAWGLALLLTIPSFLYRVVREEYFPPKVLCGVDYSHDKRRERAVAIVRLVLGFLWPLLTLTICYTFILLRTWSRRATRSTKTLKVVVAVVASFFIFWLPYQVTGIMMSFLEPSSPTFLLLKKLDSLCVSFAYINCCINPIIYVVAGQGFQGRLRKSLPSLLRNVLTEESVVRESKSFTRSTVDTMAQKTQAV

[4] = biological target: C5aR D282A mutant (human) (UniProt P21730)
Sequence of C5aR D282A mutant (human) (P21730 whole entry D282A): as the sequence (P21730 whole entry) above, with D282A counted along it

[5] = biological target: C5aR complexed with the PMX53 antagonist (free PMX53 injected) (human) (UniProt P21730); remark: listed apart in the source

Sequence of C5aR complexed with the PMX53 antagonist (free PMX53 injected) (human) (P21730 whole entry, looked up, one chain of several): as the sequence (P21730 whole entry) above
Sequence of complement C5a anaphylatoxin (P01031 678-751): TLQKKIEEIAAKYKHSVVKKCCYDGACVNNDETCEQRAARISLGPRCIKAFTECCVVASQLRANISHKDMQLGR
Sequence of C5aR R175V/Y258V double mutant (human) (P21730 whole entry R175V/Y258V): as the sequence (P21730 whole entry) above, with R175V, Y258V counted along it

Substance	residence time τ0.5 [1]	reduction in residence time against C5aR WT [2]	Kd [3]	equilibrium force Feq [3]	residence time [4]	Kd [1]	equilibrium force Feq [1]	equilibrium force Feq [5]
C5a des-Arg (ligand)	0.5 ms							
Cys-Gly3-Phe-[{Orn}-Pro-{D-Cha}-Trp-Arg] (PMX53-Gly3-Cys), PMX53 antagonist as tethered to the AFM tip (peptide)		40%	4.7 nM	50 pN	0.1 ms			
complement C5a anaphylatoxin (from UniProt P01031 678-751) (ligand)	0.2 ms					800 mM	23 pN	23 pN
